Molecular target: human PVRIG expressed on cells (human) (UniProt Q6DKI7)
Experiment: cell-based or functional assay

human PVRIG expressed on cells (human), sequence (Q6DKI7 41-326 limits assumed, form in doubt): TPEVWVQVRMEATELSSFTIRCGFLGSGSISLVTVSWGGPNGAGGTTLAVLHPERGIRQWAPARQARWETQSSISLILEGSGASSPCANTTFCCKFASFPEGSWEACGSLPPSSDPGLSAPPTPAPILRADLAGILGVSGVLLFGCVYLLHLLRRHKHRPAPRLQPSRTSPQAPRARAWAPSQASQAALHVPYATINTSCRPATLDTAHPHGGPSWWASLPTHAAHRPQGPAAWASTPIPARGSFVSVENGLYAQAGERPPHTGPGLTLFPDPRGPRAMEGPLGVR

IFNγ, mixed lymphocyte reaction, 20 nM antibody: 74 pg/mL
IFNγ, mixed lymphocyte reaction, 100 nM antibody: 89 pg/mL
Substance: hIgG4 isotype control (antibody)
Killing activity (%) of NK92 on K562, 4 nM antibody: 11.2%
Killing activity (%) of NK92 on K562, 20 nM antibody: 11.7%
Killing activity (%) of NK92 on K562, 100 nM antibody: 9.2%

Source: patent US20240376204A1
